Publication PMC7261175, “A splice site-sensing conformational switch in U2AF2 is modulated by U2AF1 and its recurrent myelodysplasia-associated mutation” (Nucleic Acids Research, 2019)

Experiments:
U2AF1 UHM (dZn);U2AF2 = U2AF1 UHM (dZn);U2AF2 (human;human, UniProt Q01081;P26368-2 43-146;85-471, C67S|); assay: fluorescence anisotropy; Kd shown in figure only; Anisotropy: 150 mM NaCl, 25 mM HEPES pH 6.8, 0.5 mM TCEP, 3% glycerol, 20 uM ZnCl2, 0.2 U/ul SUPERase-In; smFRET: 25 mM HEPES pH 7.0, 150 mM KCl, 0.01% octaethylene glycol monododecyl ether, 0.2 mM TCEP, 6 mM BME, 1.5 mM Trolox, oxygen scavenger, room temperature, excess U2AF1 (1000 nM) with heterodimer; details: protein: recombinant;recombinant; tags: GST cleaved by TEV;GST cleaved by PreScission; copies: 1;1; label: 5'-fluorescein
U2AF1 untagged;U2AF2 = U2AF1 untagged;U2AF2 (human;human, UniProt Q01081;P26368-2 1-193;85-471, |); assay: fluorescence anisotropy; Kd in figure only; tag has no significant influence; Anisotropy: 150 mM NaCl, 25 mM HEPES pH 6.8, 0.5 mM TCEP, 3% glycerol, 20 uM ZnCl2, 0.2 U/ul SUPERase-In; smFRET: 25 mM HEPES pH 7.0, 150 mM KCl, 0.01% octaethylene glycol monododecyl ether, 0.2 mM TCEP, 6 mM BME, 1.5 mM Trolox, oxygen scavenger, room temperature, excess U2AF1 (1000 nM) with heterodimer; details: protein: recombinant;recombinant; tags: MBP cleaved by TEV; GSGGGGS linker remains;GST cleaved by PreScission; copies: 1;1; label: 5'-fluorescein
His6SumoMBP-U2AF1;U2AF2 = His6SumoMBP-U2AF1;U2AF2 (human;human, UniProt Q01081;P26368-2 1-188;85-471, C67S|); assay: fluorescence anisotropy; Anisotropy: 150 mM NaCl, 25 mM HEPES pH 6.8, 0.5 mM TCEP, 3% glycerol, 20 uM ZnCl2, 0.2 U/ul SUPERase-In; smFRET: 25 mM HEPES pH 7.0, 150 mM KCl, 0.01% octaethylene glycol monododecyl ether, 0.2 mM TCEP, 6 mM BME, 1.5 mM Trolox, oxygen scavenger, room temperature, excess U2AF1 (1000 nM) with heterodimer; details: protein: recombinant;recombinant; tags: N-terminal His6-SUMO-MBP with AAA linker; C-terminal extra Ala;GST cleaved by PreScission; copies: 1;1; label: 5'-fluorescein
[1] = molecular target: T1, His6SumoMBP-U2AF1 S34F;U2AF2 Cy3/Cy5 (human;human, UniProt Q01081;P26368-2 1-188;85-342, S34F;C67S|A181C;C305A;Q324C); assay: smFRET; RNA tethered; slightly more open than DEK(-3U); Anisotropy: 150 mM NaCl, 25 mM HEPES pH 6.8, 0.5 mM TCEP, 3% glycerol, 20 uM ZnCl2, 0.2 U/ul SUPERase-In; smFRET: 25 mM HEPES pH 7.0, 150 mM KCl, 0.01% octaethylene glycol monododecyl ether, 0.2 mM TCEP, 6 mM BME, 1.5 mM Trolox, oxygen scavenger, room temperature, excess U2AF1 (1000 nM) with heterodimer; details: protein: recombinant;recombinant; tags: N-terminal His6-SUMO-MBP with AAA linker; C-terminal extra Ala;GST cleaved; Cy3/Cy5 on C181 and C324; copies: 1;1; label: biotin on annealed DNA
[2] = molecular target: T2, His6SumoMBP-U2AF1;U2AF2 Cy3/Cy5 (human;human, UniProt Q01081;P26368-2 1-188;85-342, C67S|A181C;C305A;Q324C); assay: smFRET; RNA tethered; more open than DEK(-3U); Anisotropy: 150 mM NaCl, 25 mM HEPES pH 6.8, 0.5 mM TCEP, 3% glycerol, 20 uM ZnCl2, 0.2 U/ul SUPERase-In; smFRET: 25 mM HEPES pH 7.0, 150 mM KCl, 0.01% octaethylene glycol monododecyl ether, 0.2 mM TCEP, 6 mM BME, 1.5 mM Trolox, oxygen scavenger, room temperature, excess U2AF1 (1000 nM) with heterodimer; details: protein: recombinant;recombinant; tags: N-terminal His6-SUMO-MBP with AAA linker; C-terminal extra Ala;GST cleaved; Cy3/Cy5 on C181 and C324; copies: 1;1; label: biotin on annealed DNA
[3] = molecular target: U2AF2 Cy3/Cy5 isolated subunit (human, UniProt P26368-2 113-342, A181C;C305A;Q324C); assay: smFRET; RNA tethered; preferentially open; Anisotropy: 150 mM NaCl, 25 mM HEPES pH 6.8, 0.5 mM TCEP, 3% glycerol, 20 uM ZnCl2, 0.2 U/ul SUPERase-In; smFRET: 25 mM HEPES pH 7.0, 150 mM KCl, 0.01% octaethylene glycol monododecyl ether, 0.2 mM TCEP, 6 mM BME, 1.5 mM Trolox, oxygen scavenger, room temperature, excess U2AF1 (1000 nM) with heterodimer; details: protein: recombinant, tags: His6 and T7 tags, label: biotin on annealed DNA
[4] = molecular target: T2, His6SumoMBP-U2AF1;U2AF2 Cy3/Cy5; assay: smFRET; RNA tethered; open 0.4 FRET; Anisotropy: 150 mM NaCl, 25 mM HEPES pH 6.8, 0.5 mM TCEP, 3% glycerol, 20 uM ZnCl2, 0.2 U/ul SUPERase-In; smFRET: 25 mM HEPES pH 7.0, 150 mM KCl, 0.01% octaethylene glycol monododecyl ether, 0.2 mM TCEP, 6 mM BME, 1.5 mM Trolox, oxygen scavenger, room temperature, excess U2AF1 (1000 nM) with heterodimer; details: protein: recombinant;recombinant; tags: N-terminal His6-SUMO-MBP with AAA linker; C-terminal extra Ala;GST cleaved; Cy3/Cy5 on C181 and C324; copies: 1;1; label: biotin on annealed DNA
[5] = molecular target: T1, His6SumoMBP-U2AF1 S34F;U2AF2 Cy3/Cy5; assay: smFRET; RNA tethered; 25% closed; Anisotropy: 150 mM NaCl, 25 mM HEPES pH 6.8, 0.5 mM TCEP, 3% glycerol, 20 uM ZnCl2, 0.2 U/ul SUPERase-In; smFRET: 25 mM HEPES pH 7.0, 150 mM KCl, 0.01% octaethylene glycol monododecyl ether, 0.2 mM TCEP, 6 mM BME, 1.5 mM Trolox, oxygen scavenger, room temperature, excess U2AF1 (1000 nM) with heterodimer; details: protein: recombinant;recombinant; tags: N-terminal His6-SUMO-MBP with AAA linker; C-terminal extra Ala;GST cleaved; Cy3/Cy5 on C181 and C324; copies: 1;1; label: biotin on annealed DNA
[6] = molecular target: His6SumoMBP-U2AF1;U2AF2 Cy3/Cy5 D215R/G319R (human;human, UniProt Q01081;P26368-2 1-188;85-342, C67S|A181C;D215R;C305A;G319R;Q324C); assay: smFRET; RNA tethered; about half closed; Anisotropy: 150 mM NaCl, 25 mM HEPES pH 6.8, 0.5 mM TCEP, 3% glycerol, 20 uM ZnCl2, 0.2 U/ul SUPERase-In; smFRET: 25 mM HEPES pH 7.0, 150 mM KCl, 0.01% octaethylene glycol monododecyl ether, 0.2 mM TCEP, 6 mM BME, 1.5 mM Trolox, oxygen scavenger, room temperature, excess U2AF1 (1000 nM) with heterodimer; details: protein: recombinant;recombinant; tags: N-terminal His6-SUMO-MBP with AAA linker; C-terminal extra Ala;GST cleaved; Cy3/Cy5 on C181 and C324; copies: 1;1; label: biotin on annealed DNA
Chain of His6SumoMBP-U2AF1;U2AF2 Cy3/Cy5 D215R/G319R (Q01081 1-188 C67S, chain 1 of 2): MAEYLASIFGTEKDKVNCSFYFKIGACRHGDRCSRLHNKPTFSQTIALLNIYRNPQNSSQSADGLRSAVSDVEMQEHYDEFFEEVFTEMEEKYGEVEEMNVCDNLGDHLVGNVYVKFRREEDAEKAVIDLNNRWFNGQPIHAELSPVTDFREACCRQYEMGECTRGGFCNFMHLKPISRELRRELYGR
Chain of His6SumoMBP-U2AF1;U2AF2 Cy3/Cy5 D215R/G319R (P26368 85-342 A181C/D215R/C305A/G319R/Q324C, chain 2 of 2): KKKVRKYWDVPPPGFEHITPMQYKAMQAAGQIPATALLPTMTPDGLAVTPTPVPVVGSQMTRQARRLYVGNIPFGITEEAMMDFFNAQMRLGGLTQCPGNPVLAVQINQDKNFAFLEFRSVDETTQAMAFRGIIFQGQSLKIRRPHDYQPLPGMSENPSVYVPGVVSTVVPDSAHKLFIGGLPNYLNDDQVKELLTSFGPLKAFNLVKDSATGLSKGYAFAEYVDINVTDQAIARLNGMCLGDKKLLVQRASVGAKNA

T1 sequence (Q01081 1-188 S34F/C67S, chain 1 of 2): as the sequence (Q01081 1-188 C67S, chain 1 of 2) above, with S34F counted along it
T1 sequence (P26368 85-342 A181C/C305A/Q324C, chain 2 of 2): as the sequence (P26368 85-342 A181C/D215R/C305A/G319R/Q324C, chain 2 of 2) above, with R131D, R235G counted along it
T2 sequence (Q01081 1-188 C67S, chain 1 of 2): as the sequence (Q01081 1-188 C67S, chain 1 of 2) above
T2 sequence (P26368 85-342 A181C/C305A/Q324C, chain 2 of 2): as the sequence (P26368 85-342 A181C/D215R/C305A/G319R/Q324C, chain 2 of 2) above, with R131D, R235G counted along it
Chain of U2AF1 UHM (dZn);U2AF2 (Q01081 43-146 C67S, chain 1 of 2): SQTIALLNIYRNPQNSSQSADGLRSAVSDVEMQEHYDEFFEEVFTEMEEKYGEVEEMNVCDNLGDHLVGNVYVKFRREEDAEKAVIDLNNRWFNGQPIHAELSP
Chain of U2AF1 UHM (dZn);U2AF2 (P26368 other isoform, or with tags, fused parts or gaps C67S|, chain 2 of 2): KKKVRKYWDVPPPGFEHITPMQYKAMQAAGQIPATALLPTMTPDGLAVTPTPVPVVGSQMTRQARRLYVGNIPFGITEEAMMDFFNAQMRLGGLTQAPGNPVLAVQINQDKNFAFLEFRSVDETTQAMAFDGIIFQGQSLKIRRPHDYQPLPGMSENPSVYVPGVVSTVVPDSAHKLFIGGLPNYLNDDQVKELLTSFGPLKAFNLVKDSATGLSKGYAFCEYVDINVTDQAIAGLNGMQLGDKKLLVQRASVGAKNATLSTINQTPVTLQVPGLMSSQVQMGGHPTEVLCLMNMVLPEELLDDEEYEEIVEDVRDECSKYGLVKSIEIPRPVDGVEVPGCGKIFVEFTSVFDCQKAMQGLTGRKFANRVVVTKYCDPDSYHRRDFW
Chain of U2AF2 Cy3/Cy5 isolated subunit (P26368 113-342 A181C/C305A/Q324C): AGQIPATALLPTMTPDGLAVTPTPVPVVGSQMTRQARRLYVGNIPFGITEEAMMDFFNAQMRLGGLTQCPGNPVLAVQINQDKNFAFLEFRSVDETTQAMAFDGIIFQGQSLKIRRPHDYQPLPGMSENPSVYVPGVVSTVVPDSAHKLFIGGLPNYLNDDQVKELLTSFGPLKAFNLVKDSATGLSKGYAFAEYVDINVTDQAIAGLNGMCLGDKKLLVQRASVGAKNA
Chain of U2AF1 untagged;U2AF2 (Q01081 1-193, chain 1 of 2): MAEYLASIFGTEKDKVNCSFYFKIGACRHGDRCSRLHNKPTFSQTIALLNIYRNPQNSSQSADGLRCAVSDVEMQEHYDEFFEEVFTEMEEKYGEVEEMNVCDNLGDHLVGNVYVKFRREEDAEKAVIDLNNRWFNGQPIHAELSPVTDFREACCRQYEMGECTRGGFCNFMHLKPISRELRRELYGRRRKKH
Chain of U2AF1 untagged;U2AF2 (P26368 other isoform, or with tags, fused parts or gaps |, chain 2 of 2): as the sequence (P26368 other isoform, or with tags, fused parts or gaps C67S|, chain 2 of 2) above
Chain of His6SumoMBP-U2AF1;U2AF2 (Q01081 1-188 C67S, chain 1 of 2): as the sequence (Q01081 1-188 C67S, chain 1 of 2) above
Chain of His6SumoMBP-U2AF1;U2AF2 (P26368 other isoform, or with tags, fused parts or gaps C67S|, chain 2 of 2): as the sequence (P26368 other isoform, or with tags, fused parts or gaps C67S|, chain 2 of 2) above

B1: Fl-AdML (ssRNA)
RNA: CUGUCCCUUUUUUUUCACAGCUCGCGGUUGAG
- fold weaker binding affinity (Kd ratio) (U2AF1 UHM (dZn);U2AF2): 35 fold weaker than heterodimer with zinc knuckles
- binding result (U2AF1 untagged;U2AF2): binds
- Kd (His6SumoMBP-U2AF1;U2AF2): 120 ± 15 nM

B2: DEK(-3C) (ssRNA)
RNA: UACUAAAUUAAUUUCCAGAAAAGAGU
modifications: 3' PEG18-DNA conjugate
- binding result [1]: binds
- binding result [2]: binds
- binding result [3]: binds

B3: AdML tethered (ssRNA)
RNA: UCCCUUUUUUUUCCACAGCUCGCGGU
modifications: 3' PEG18-DNA conjugate
- binding result [4]: binds
- binding result [5]: binds
- binding result [6]: binds
